We go through two molecules from patent publication US20180264103A1 (ELITEIMMUNE, published 2018).

Assay [1] concerns the target RSV-F (Strain A2) (respiratory syncytial virus (Strain A2)) (UniProt P03420). Kind of assay: ELISA, antigen coated on plate, same conditions as R66. For orientation: ELISA stands for enzyme-linked immunosorbent assay.
The target in assay [2] is RSV-F (Strain RSS-2) (respiratory syncytial virus (Strain RSS-2)) (UniProt P11209). The assay is described as above.
The target of a further assay is T1, RSV-F (Strain A2) (respiratory syncytial virus (Strain A2), UniProt P03420 26-529).
T1 construct: Bought protein (Sino Biological Inc.), coated on the ELISA plate; also called glycoprotein F; antigen F of RSV
T1 sequence (P03420 26-529): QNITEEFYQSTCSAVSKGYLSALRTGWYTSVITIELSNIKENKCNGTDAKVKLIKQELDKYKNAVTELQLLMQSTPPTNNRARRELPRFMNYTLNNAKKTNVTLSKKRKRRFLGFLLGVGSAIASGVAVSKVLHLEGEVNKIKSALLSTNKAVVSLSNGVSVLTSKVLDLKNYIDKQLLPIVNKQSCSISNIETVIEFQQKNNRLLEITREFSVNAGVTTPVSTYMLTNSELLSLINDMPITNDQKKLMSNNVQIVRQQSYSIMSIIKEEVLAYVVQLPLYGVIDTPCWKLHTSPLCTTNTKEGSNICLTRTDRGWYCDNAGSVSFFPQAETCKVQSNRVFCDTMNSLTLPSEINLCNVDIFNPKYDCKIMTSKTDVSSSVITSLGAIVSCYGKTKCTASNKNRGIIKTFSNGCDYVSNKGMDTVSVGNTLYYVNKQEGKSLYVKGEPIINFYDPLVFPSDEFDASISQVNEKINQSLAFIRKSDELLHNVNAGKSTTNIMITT
Kind of assay: ELISA, antigen coated on plate, anti-human IgG-HRP detection.

Another assay deals with T2, RSV-F (Strain RSS-2) (respiratory syncytial virus (Strain …, UniProt P11209 26-529)).
T2 construct: Bought protein (Sino Biological Inc.), coated on the ELISA plate; also called glycoprotein F; antigen F of RSV
T2 sequence (P11209 26-529): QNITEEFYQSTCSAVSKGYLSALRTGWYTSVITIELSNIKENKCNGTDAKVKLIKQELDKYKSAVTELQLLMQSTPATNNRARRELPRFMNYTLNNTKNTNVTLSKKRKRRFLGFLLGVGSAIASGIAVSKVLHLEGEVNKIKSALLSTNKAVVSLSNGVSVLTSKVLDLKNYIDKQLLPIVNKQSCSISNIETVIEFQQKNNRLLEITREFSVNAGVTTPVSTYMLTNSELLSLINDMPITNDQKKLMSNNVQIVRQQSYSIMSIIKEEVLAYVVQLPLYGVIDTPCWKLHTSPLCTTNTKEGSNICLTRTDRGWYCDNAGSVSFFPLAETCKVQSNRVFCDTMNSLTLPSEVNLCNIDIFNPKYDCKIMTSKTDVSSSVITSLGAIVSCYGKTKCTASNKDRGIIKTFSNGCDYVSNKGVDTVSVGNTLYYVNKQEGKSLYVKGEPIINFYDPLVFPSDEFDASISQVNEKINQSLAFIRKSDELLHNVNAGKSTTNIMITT
Described as above.

Chain of RSV-F (Strain A2) (respiratory syncytial virus (Strain A2)) (P03420 26-529): as the sequence (P03420 26-529) above
Chain of RSV-F (Strain RSS-2) (respiratory syncytial virus (Strain RSS-2)) (P11209 26-529): as the sequence (P11209 26-529) above

As to Palivizumab Synagis (antibody), the EC50 (in general, the concentration needed to bring the measured effect to its halfway point) was determined as 4.88 ng/mL in assay [1] and 1.88 ng/mL in assay [2].

B1: fully human anti-RSV monoclonal antibody R66 (antibody, V domains shown)
VH: EVQLVESGGGLVQPGRSLRLSCTASGFTFADYSMTWVRQAPGKGLEWVGLIKRNAYGGTTEYAASVRGRFTISRDDSRSIAYLQMHSLKSEDTAVYFCLRGYSGYDWEGLDAFEVWGQGTMVTVSS
VL: DIQMTQSPSAMSASVGDRVTITCRASQGSSTYLAWFQQKPGKVPKRLIYAVSSLQSGVPSRFSGSGSGTEFTLTISSLQPEDSATYYCLQHNSFPLTFGQGTKVEIK
notes: expressed in 293T cells, Protein A purified; heavy chain about 50 kDa, light chain about 22 kDa; also called R66 antibody
With B1, the EC50 with RSV-F (Strain A2) is 1.79 ng/mL; in the assay with RSV-F (Strain RSS-2), 1.46 ng/mL.
